Test results published in patent US20220144916A1 (University of Texas, published 2022).

Molecular target: human IgG1 coated on ELISA plates (human, UniProt P01857-1 1-330 = IgG part)
Test: competition ELISA, human IgG1 coat; blocked ligand FLAG-tagged FcγRIIIA, anti-FLAG-HRP [panel B]

B1: HCMV viral Fcγ receptor gp34 (residues 24-182), soluble, strep and FLAG tags (receptor)
chain: SSSNAVEPTKKPLKLANYRATCEDRTRTLVTRLNTSHHSVVWQRYDIYSRYMRRMPPLCIITDAYKETTRQGGAAFACTRQNLTLYNLTVKDTGVYLLQDQYTGDVEAFYLIIHPRSFCRALETRRCFYPGPGRVVVTDSQEADRAIISDLKRQWSGLS
notes: range 24-182
- IC50 (read off the curve): ~30 nM
